The results in this text go back to US20070286806A1, “Methods and Compositions for Modulating a Steroid Receptor” (Mount Sinai Hospital, priority 2004, published 2007).

Holding throughout (assay): One-hybrid system: PR activation domains fused to Gal4 DBD, G5-Luc reporter and western blot in SHM cells
Holding throughout (type): cell-based
A general note: A western blot detects proteins with antibodies after separation by electrophoresis.

In assay [1] the target is T1, activation domains of PR (Homo sapiens, UniProt P06401).
T1 construct: expressed in transfected cells; host or cells: SHM (Syrian hamster myocyte) cells
T1 sequence (P06401 650-933): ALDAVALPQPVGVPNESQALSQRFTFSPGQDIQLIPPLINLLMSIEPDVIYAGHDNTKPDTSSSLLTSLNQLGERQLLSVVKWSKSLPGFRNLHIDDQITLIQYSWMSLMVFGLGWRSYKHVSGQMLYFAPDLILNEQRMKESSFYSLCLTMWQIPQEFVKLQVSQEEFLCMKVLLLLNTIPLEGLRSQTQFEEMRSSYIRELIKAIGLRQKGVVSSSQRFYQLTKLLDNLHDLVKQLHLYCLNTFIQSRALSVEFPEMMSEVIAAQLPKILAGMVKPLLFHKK
Particulars: PR650-933 (only the AF2 domain). How it is done:
(§1) FIG. 6 A-F. Inhibition of PR activation domains by PSF involves different mechanisms. Segments containing individual activation domains of PR were fused to Gal4 DNA binding domain in pM vector and cotransfected with or without increasing amounts of His-PSF, together with G5 luciferase reporter vector in SHM cells. Progesterone (10 nM) was added to cells transfected with segments containing PR hormone binding domain (HBD). Luciferase activity was measured 30 hours after transfection and normalized to β-galatosidase acitvity. Data shown are the mean of three separate experiments performed in triplicate±S.E. Whole cell lysate from each transfection was western blotted with anti-Gal4 DNA binding domain (DBD) antibody (Santa Cruz) and anti-His tag antibody H-15 (Santa Cruz). Note: the empty vector pSG5 was added to the DNA mixture to ensure that the amounts of SV40 promoter in all the transfection assays are equal.
(§2) For immunoprecipitation of the endogenous PR and PSF, T47D cells cultured in 150 mm dishes were lysed in 800 μl NETN buffer containing 150 mM NaCl plus protease inhibitor cocktail. Cell lysate were then incubated with 5 μg of PR or PSF, or control mouse IgG at 4° C. overnight, followed by the addition of 30 μl of protein A/G PLUS-agarose beads (Santa Cruz) for another two hours at 4° C. Resins were washed with NETN containing 250 mM NaCl and eluted with 1×Laemmli buffer. The eluted proteins along with the whole cell extract were western blotted by PR or PSF antibody. • GST pulldown assay: GST pulldown assay was performed as previously described (20). GST and its fusion proteins were first immobilized to glutathione-Sepharose 4B affinity matrix. The matrix was then incubated at 4° C. overnight with rabbit reticulocyte lysate (Promega) containing PR or His-PSF transcribed and translated in presence of ^35S methionine. The matrix was washed three times with cold NETN buffer before adding 1 ×Laemmli buffer to elute associated proteins. The eluted proteins were separated on 10% SDS-PAGE gel. Gels were treated with Enhancer (NEN, Boston, US) dried and analyzed by autoradiography. • Cell culture and transient transfection: SHM cells and 293T cells were maintained in DMEM plus 5% FCS (Sigma) as described before (22). For experiments involving steroid exposure, the medium was substituted with phenol red free DMEM containing 5% charcoal-treated fetal bovine serum (Hyclone, Utah, USA). Transfection was performed according to manufacturers protocol (Fementas). Cells were seeded at a density to achieve 60-80% confluency the following day. The DNA and transfection reagent were mixed and added to the medium. Cell lysates were collected at least 30 hours after transfection. For luciferase assay, cells were collected in 200 μl of lysis buffer (Promega) of which 10μl was used for the luciferase and β-Gal activity assays respectively. Luciferase activity was determined by using the luciferin reagent (Promega) according to manufacture's protocol. Transfection efficiency was normalized to β-galactosidase activity. For western blots, cell lysates were collected in NETN buffer plus protease inhibitor cocktail. About 30 μg of protein extract was separated on SDS gel electrophoresis followed by western blotting with antibodies of interest. • Electrophoretic Mobility Shift Assay: PRDBD was synthesized in rabbit reticulocyte by using the TNT coupled in vitro transcription-translation system (Promega) with the vector pcDNA3 PRDBD. Full-length PR protein extract was obtained by transiently transfecting 293T cells with Flag-PRB vector. Cells were treated with 10^−8 M progesterone and nuclear fraction was extracted by the NE-PER Nuclear and Cytoplasmic Extraction Reagents Kit (Pierce). The nuclear fraction containing PRs was confirmed by western blot with the PR antibody AB-52 and used in gel shift assay. […]

For assay [2], the target named is T2, activation domains of PR (Homo sapiens, UniProt P06401).
T2 construct: expressed in transfected cells; host or cells: SHM (Syrian hamster myocyte) cells
T2 sequence (P06401 1-164): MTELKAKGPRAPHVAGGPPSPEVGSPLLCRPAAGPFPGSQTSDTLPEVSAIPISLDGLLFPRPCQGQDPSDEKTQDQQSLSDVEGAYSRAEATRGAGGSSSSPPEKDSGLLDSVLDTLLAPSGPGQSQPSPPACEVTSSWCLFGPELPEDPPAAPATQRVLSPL
The procedure: as §1, §2

Assay [3] addresses T3, activation domains of PR (Homo sapiens, UniProt P06401).
T3 construct: expressed in transfected cells; host or cells: SHM (Syrian hamster myocyte) cells
T3 sequence (P06401 556-933): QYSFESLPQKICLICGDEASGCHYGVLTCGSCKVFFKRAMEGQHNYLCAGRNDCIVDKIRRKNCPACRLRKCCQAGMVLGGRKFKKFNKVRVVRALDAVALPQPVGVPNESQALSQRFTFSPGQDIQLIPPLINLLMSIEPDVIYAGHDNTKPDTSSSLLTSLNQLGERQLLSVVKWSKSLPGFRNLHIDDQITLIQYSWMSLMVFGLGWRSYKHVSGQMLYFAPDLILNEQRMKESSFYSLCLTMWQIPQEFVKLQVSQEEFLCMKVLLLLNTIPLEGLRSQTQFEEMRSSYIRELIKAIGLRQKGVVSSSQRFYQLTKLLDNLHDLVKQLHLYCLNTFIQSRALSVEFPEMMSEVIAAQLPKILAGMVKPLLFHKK
How it is done: as §1, §2
This is another data set of the same source.

Assay [4] deals with T4, activation domains of PR (Homo sapiens, UniProt P06401).
T4 construct: expressed in transfected cells; host or cells: SHM (Syrian hamster myocyte) cells
T4 sequence (P06401 456-556): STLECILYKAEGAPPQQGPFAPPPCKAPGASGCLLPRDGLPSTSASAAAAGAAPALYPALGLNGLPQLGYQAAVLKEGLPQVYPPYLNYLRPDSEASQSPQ
Particulars: PR456-556 (AF1 domain). How it is done: as §1, §2

For assay [5], the target named is T5, activation domains of PR (Homo sapiens, UniProt P06401).
T5 construct: expressed in transfected cells; host or cells: SHM (Syrian hamster myocyte) cells
T5 sequence (P06401 456-650): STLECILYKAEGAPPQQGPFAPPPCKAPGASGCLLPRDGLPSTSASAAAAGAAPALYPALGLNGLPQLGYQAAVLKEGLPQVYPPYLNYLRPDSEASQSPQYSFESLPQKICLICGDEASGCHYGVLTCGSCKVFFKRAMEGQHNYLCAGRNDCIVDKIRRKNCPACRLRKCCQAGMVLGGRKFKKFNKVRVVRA
How it is done: as §1, §2
The source holds these as a separate data set.

B1: polypyrimidine tract binding protein-associated splicing factor (protein)
chain: MSRDRFRSRGGGGGGFHRRGGGGGRGGLHDFRSPPPGMGLNQNRGPMGPGPGQSGPKPPIPPPPPHQQQQQPPPQQPPPQQPPPHQPPPHPQPHQQQQPPPPPQDSSKPVVAQGPGPAPGVGSAPPASSSAPPATPPTSGAPPGSGPGPTPTPPPAVTSAPPGAPPPTPPSSGVPTTPPQAGGPPPPPAAVPGPGPGPKQGPGPGGPKGGKMPGGPKPGGGPGLSTPGGHPKPPHRGGGEPRGGRQHHPPYHQQHHQGPPPGGPGGRSEEKISDSEGFKANLSLLRRPGEKTYTQRCRLFVGNLPADITEDEFKRLFAKYGEPGEVFINKGKGFGFIKLESRALAEIAKAELDDTPMRGRQLRVRFATHAAALSVRNLSPYVSNELLEEAFSQFGPIERAVVIVDDRGRSTGKGIVEFASKPAARKAFERCSEGVFLLTTTPRPVIVEPLEQLDDEDGLPEKLAQKNPMYQKERETPPRFAQHGTFEYEYSQRWKSLDEMEKQQREQVEKNMKDAKDKLESEMEDAYHEHQANLLRQDLMRRQEELRRMEELHNQEMQKRKEMQLRQEEERRRREEEMMIRQREMEEQMRRQREESYSRMGYMDPRERDMRMGGGGAMNMGDPYGSGGQKFPPLGGGGGIGYEANPGVPPATMSGSMMGSDMRTERFGQGGAGPVGGQGPRGMGPGTPAGYGRGREEYEGPNKKPRF
notes: expressed from transfected His-PSF vector or in vitro translated
Take B1: in the assay with activation domains of PR [1], the “effect on PR650-933” value is “no effect”. The “luciferase activity of pM PR1-164” value with activation domains of PR [2] (PR1-164 (AF3), increasing amounts of PSF) was “significant dose-dependent reduction in luciferase activity”. In the assay with activation domains of PR [2] (PR1-164, western blot), the “pM PR1-164 protein” value is recorded as “loss of pM PR1-164 protein”. Besides, in the assay with activation domains of PR [3] (PR556-933 (DBD and AF2 domain), 10 nM progesterone), the “transactivation of PR556-933” value is “did inhibit transactivation”. The “protein level of PR556-933” value with activation domains of PR [3] (PR556-933, western blot) is “without any reduction”. For the same molecule, the “effect on PR456-556” value with activation domains of PR [4] is recorded as “no effect”. The “transactivation of PR456-650” value in the assay with activation domains of PR [5] (PR456-650 (AF1 domain and DBD)) is “inhibited transactivation”. Further, the “protein of PR456-650” value with activation domains of PR [5] (PR456-650, western blot) is recorded as “enhanced degradation”.
